The assay deals with T1, mCherry (red fluorescence) H-RAS G12V expressed in NIH3T3 cells (UniProt P01112 1-186, limits assumed).
T1 construct: Intracellular target at the inner cell membrane; also called intracellular H-RAS G12V mutants
As to the kind of experiment: confocal microscopy, colocalisation in NIH3T3 cells expressing mCherry H-RAS G12V.

B1: cytosol-penetrating antibody (cytotransmab) TMab4 (antibody, V domains shown)
VH: EVQLVESGGGLVQPGGSLRLSCAASGYTFTSYVMHWVRQAPGKGLEWVSAINPYNDGNYYADSVKGRFTISRDNSRKTLYLQMNSLRAEDTAVYYCARGAYKRGYAMDYWGQGTTVTVSS
VL: DLVMTQSPSSLSASVGDRVTITCKSSQSLFNSRTRKNYLAWYQQKPGKAPKLLIYWASTRESGVPSRFSGSGSGTDFTLTISSLQPEDFATYYCQQYYYHMYTFGQGTKVEIKR
notes: Intact IgG-format monoclonal antibody; Used as negative control in the RAS assays; also called CT
With B1, the binding result is recorded as “no binding (tested: 2 µM)”.

The values above are taken from patent EP3466970A1 (Orum Therapeutics Inc., dated 2019).
